Reference: patent US20240425588A1 (APEXIMMUNE THERAPEUTICS, published 2024)
Numbering of substitutions follows the chain as printed.

B1: 45.32A8.G6 (antibody, V domains shown)
VH: QVQLKESGPGLVAPSHSLSITCTVSGFSLTNYNINWIRQPPGKGLEWLGIIWTGGGTNYNSAFMSTLSINKDNSKSQVFLKMNRMQTDDTTIYYCVRETYFNNYGFYFDYWGQSTTLTVSS
VL: EIVLTQSPTTMAASPGEKITITCSASSSISSNYLHWYQQKPGFSPKLLIYRTSNLASGVPARFSGSGSGTSYSLTIGTMEAEDVATYYCQQGSSIPRTFGGGTKLEIK
notes: Mouse hybridoma antibody, tested as supernatant or protein G purified
B2: 45.50C2.A6 (antibody, V domains shown)
VH: B1 VH with H16Q, I50V, T66R, N70S, M85L, T91A, T99A, N102S, S114G
VL: B1 VL
notes: as for B1
B3: 45.3D7.F7 (antibody, V domains shown)
VH: QVQLQQSGPELVKPGASVKISCKASGYGFSGYWMNWVKQGPGKGLEWIGRIFPGDGDTDYNGKLKDKATLTAYKSSSTAYLQLSSLTSEDSAVYFCARWLGGFTSWGQGTLVTVSA
VL: QIVLSQSPAILSASPGEKVTMTCRASASVSYMHWYQQKPGSSPKPWIYATSNLASGVPARFSGSGSGTSYSLTISRVEAEDAATYYCQQWSSDPPTFGAGTKLELK
notes: as for B1
B4: hu32B10 (45.32B10.A4) (antibody, V domains shown)
VH: EVQLLESGGGLVQPGGSLRLSCAASGFTFSNYVMSWVRQAPGKGLEWVSTITSGGTYTYYPDSVKGRFTISRDNSKNTLYLQMNSLRAEDTAVYYCTRWLLSLYAMDYWGQGTTVTVSS
VL: DIQMTQSPSSLSASVGDRVTITCRASQDISNFLNWYQQKPGKAVKLLLYYTSRLHSGVPSRFSGSGSGTDYTLTISSLQPEDFATYFCQQGKTYPYTFGGGTKVEIK
notes: Humanized antibody; also called humanized 45.32B10.A4
B5: 45.32B10.A4 (antibody, V domains shown)
VH: EVQLVESGGVLVKPGGSLKLSCAASGFTFSNYVMSWVRQTPEKRLEWVATITSGGTYTYYPDSVKGRFTISRDNAKNILYLQMSSLRSEDTALYYCTRWLLSLYAMDYWGQGTSVTVSS
VL: DIQMTQTTSSLSASLGDRVTITCRASQDISNFLNWYQQKPDGTVKLLIYYTSRLHSGVPSRFSGSGSGTDYSLTISNLEQEDIATYFCQQGKTYPYTFGGGTKVEIK
notes: as for B1
B6: 45.56F7.A1 (antibody, V domains shown)
VH: B5 VH with V10A, V33A, T52S, T56S, I78T, T97A
VL: B5 VL with I2F, T22S, A25S, F32Y, Y50R, Q80R, Y94P, V104L
notes: as for B1
B7: 45.75D4.D3.D9 (antibody, V domains shown)
VH: EVQLQQSGPELVKPGASMKMSCKASGYKFTSYVMHWVKQKPGQGLEWIGYIDPYNDGSKYNEKFKGKATLTSDKSSSIAYMELSSLTSEDSAVFYCARGGSRGWYFDVWGAGTTVTVSS
VL: DIQMTQSPASLSASVGETVTFTCRTNENIYSYLTWYQQKQGKSPQVLVYNAKTLAEGVPSRFSGSGSGTQFSLKINSLQPEDFGSYFCQHHFGNPLTFGAGTKLELK
notes: as for B1
B8: 45.62B12.G5 (antibody, V domains shown)
VH: DVQLQESGPGLVKPSQSLSLTCTVTGYSITSAYDWHWIRHFPGNILEWMGYIRNSGSTNYNPLLKSRISITHDTSQNHFSLKLNSVTTEDTATYYCARGLFWYFDVWGAGTTVTVSS
VL: B7 VL with F21I, T25A, N26S, S31N, V46L, F87Y, F92Y
notes: as for B1
B9: 45.86C5.C3 (antibody, V domains shown)
VH: DVQLQESGPGLVKPSQSLSLTCTVTGYSITSGYDWHWIRHFPGNILEWMGYISDSGNTIYSPSLKSRISITHDTSKNHFFLKLNSVTSEDTATYYCARGSFWYFDVWGAGTTVTVSS
VL: B7 VL with F21I, T25V, N26S, T34A, V46L, A51T, F87Y, F92Y
notes: as for B1
B10: 45.87B8.H2.H5 (antibody, V domains shown)
VH: B9 VH with G32A, H40L, N44H, D54Y, S61N, S88T
VL: DIQMTQSPASLSASVGETVTITCRVSEHIYNYLAWYQQKQGKSPQLLVYNAKTLAEGVPSRFSGSGSGTQFSLKINSLQPEDFGTYYCQHNYGNPLTFGAGTKVELK
notes: as for B1

target: T1, human TIGIT expressed on the cell surface of Jurkat cells (human, UniProt Q495A1 22-244); experiment: flow cytometry on Jurkat-hTIGIT cells
T1 construct: also called Jurkat-hTIGIT; cell surface TIGIT
T1 sequence: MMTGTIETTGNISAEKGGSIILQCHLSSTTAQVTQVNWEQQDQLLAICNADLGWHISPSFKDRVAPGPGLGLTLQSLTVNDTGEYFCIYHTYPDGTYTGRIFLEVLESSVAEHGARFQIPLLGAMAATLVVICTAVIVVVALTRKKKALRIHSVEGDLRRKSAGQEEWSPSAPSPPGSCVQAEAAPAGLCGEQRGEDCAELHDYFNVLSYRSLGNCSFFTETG
Method: Supernatants from ELISA-positive clones or purified antibodies were further tested for their ability to bind to human TIGIT or rhesus TIGIT expressed on the cell surface of Jurkat cells (Jurkat-hTIGIT or Jurkat-rhesTIGIT) by flow cytometry. Jurkat-hTIGIT or Jurkat-rhesTIGIT cells were harvested and 1×10⁵ cells per well plated in 96-well U-bottom plates and the supernatant removed. 50 μl of hybridoma supernatant or purified antibody at the specified dilution or concentration was added to each well and incubated at 4° C. for 30 minutes. Assay plates were washed 2 times with PBS and antibody binding detected using a PE-labeled goat anti-mouse antibody (Biolegend) at 1:400 dilution in PBS for 30 minutes at 4° C. Plates were washed 2 times and analyzed on a BD LSRFortessa X-20 flow cytometer (Becton Dickinson).

Binding result, binds:
B1
B2
B3
B4
B5
B6
B7
B8
B9
B10
